Patent EP4545559A2 (INSTITUTO BUTANTAN, dated 2025)
Like-named read-outs stand apart in the source and are kept apart here.

Experiments:
[1] = molecular target: T1, RBD Omicron (G339D, S371L, S373P, S375F, K417N, N440K, G446S, S477N, T478K, E484A, Q493R, G496S, Q49 (SARS-CoV-2, UniProt P0DTC2 319-541)); test: SPR kinetics; * dissociation in 360sec
T1 construct: range 319-541

[2] = molecular target: T2, RBD Gamma (K417T/E484K/N501Y) (SARS-CoV-2, UniProt P0DTC2 319-541); test: SPR kinetics; *** did not dissociate until 36000sec
T2 construct: domain: RBD

RBD Delta (L452R/T478K) [3] = molecular target: T3, RBD Delta (L452R/T478K) (SARS-CoV-2, UniProt P0DTC2 319-541); test: as above
T3 construct: domain: RBD

[4] = molecular target: T1, RBD Omicron (G339D, S371L, S373P, …); test: SPR, antigen on CM5 sensor
[5] = molecular target: T2, RBD Gamma (K417T/E484K/N501Y); test: SPR, antigen on CM5 sensor
RBD Delta (L452R/T478K) [6] = molecular target: T3, RBD Delta (L452R/T478K); test: SPR, antigen on CM5 sensor
[7] = molecular target: T1, RBD Omicron (G339D, S371L, S373P, …); test: SPR, antigen on CM5 sensor; remark: listed apart in the source
[8] = molecular target: T2, RBD Gamma (K417T/E484K/N501Y); test: SPR, antigen on CM5 sensor; remark: listed apart in the source
RBD Delta (L452R/T478K) [9] = molecular target: T3, RBD Delta (L452R/T478K); test: SPR, antigen on CM5 sensor; remark: listed apart in the source
[10] = molecular target: T1, RBD Omicron (G339D, S371L, S373P, …); test: SPR kinetics; *** did not dissociate until 36000sec
[11] = molecular target: T2, RBD Gamma (K417T/E484K/N501Y); test: as above; remark: listed apart in the source
RBD Delta (L452R/T478K) [12] = molecular target: T3, RBD Delta (L452R/T478K); test: as above; remark: listed apart in the source
[13] = molecular target: T1, RBD Omicron (G339D, S371L, S373P, …); test: SPR, antigen on CM5 sensor; remark: listed apart in the source
[14] = molecular target: T2, RBD Gamma (K417T/E484K/N501Y); test: SPR, antigen on CM5 sensor; remark: listed apart in the source
RBD Delta (L452R/T478K) [15] = molecular target: T3, RBD Delta (L452R/T478K); test: SPR, antigen on CM5 sensor; remark: listed apart in the source
RBD Delta (L452R/T478K) [16] = molecular target: T3, RBD Delta (L452R/T478K); test: SPR kinetics; ** dissociation in 36000sec
[17] = molecular target: T1, RBD Omicron (G339D, S371L, S373P, …); test: SPR kinetics; *** did not dissociate until 36000sec; remark: listed apart in the source
[18] = molecular target: T2, RBD Gamma (K417T/E484K/N501Y); test: as above; remark: listed apart in the source
[19] = molecular target: T1, RBD Omicron (G339D, S371L, S373P, …); test: SPR kinetics; * dissociation in 360sec; remark: listed apart in the source
RBD Delta (L452R/T478K) [20] = molecular target: T3, RBD Delta (L452R/T478K); test: SPR kinetics; * dissociation in 360sec
[21] = molecular target: T2, RBD Gamma (K417T/E484K/N501Y); test: SPR kinetics; *** did not dissociate until 36000sec; remark: listed apart in the source
[22] = molecular target: T1, RBD Omicron (G339D, S371L, S373P, …); test: SPR, antigen on CM5 sensor; remark: listed apart in the source
[23] = molecular target: T2, RBD Gamma (K417T/E484K/N501Y); test: SPR, antigen on CM5 sensor; remark: listed apart in the source
RBD Delta (L452R/T478K) [24] = molecular target: T3, RBD Delta (L452R/T478K); test: SPR, antigen on CM5 sensor; remark: listed apart in the source
[25] = molecular target: T1, RBD Omicron (G339D, S371L, S373P, …); test: SPR, antigen on CM5 sensor; remark: listed apart in the source
[26] = molecular target: T2, RBD Gamma (K417T/E484K/N501Y); test: SPR, antigen on CM5 sensor; remark: listed apart in the source
RBD Delta (L452R/T478K) [27] = molecular target: T3, RBD Delta (L452R/T478K); test: SPR, antigen on CM5 sensor; remark: listed apart in the source
[28] = molecular target: T1, RBD Omicron (G339D, S371L, S373P, …); test: SPR kinetics; * dissociation in 360sec; remark: listed apart in the source
[29] = molecular target: T2, RBD Gamma (K417T/E484K/N501Y); test: SPR kinetics; *** did not dissociate until 36000sec; remark: listed apart in the source
RBD Delta (L452R/T478K) [30] = molecular target: T3, RBD Delta (L452R/T478K); test: as above; remark: listed apart in the source
[31] = molecular target: T1, RBD Omicron (G339D, S371L, S373P, …); test: SPR kinetics; ** dissociation in 36000sec
[32] = molecular target: T1, RBD Omicron (G339D, S371L, S373P, …); test: SPR, antigen on CM5 sensor; remark: listed apart in the source
[33] = molecular target: T2, RBD Gamma (K417T/E484K/N501Y); test: SPR, antigen on CM5 sensor; remark: listed apart in the source
RBD Delta (L452R/T478K) [34] = molecular target: T3, RBD Delta (L452R/T478K); test: SPR, antigen on CM5 sensor; remark: listed apart in the source
[35] = molecular target: T2, RBD Gamma (K417T/E484K/N501Y); test: SPR kinetics; *** did not dissociate until 36000sec; remark: listed apart in the source
RBD Delta (L452R/T478K) [36] = molecular target: T3, RBD Delta (L452R/T478K); test: as above; remark: listed apart in the source

B1: Monoclonal antibody S.9.4.C7 (antibody, V domains shown)
VH: QVQLVESGGGVVQPGRSLRLSCAASGFTFRNYAMHWVRQAPGKGLEWVTVISYDGSDKYYADSVKGRFTISRDNSKNTLYLQMNSLRAEDTAVYYCAKDPVGGYCSGGRCYFHSHYFDYWGQGTLVTVSS
VL: NFMLTQPHSVSESPGKTVTISCTRSSGSIASYYVQWYQQRPGSSPTTVISEDNQRPSGVPDRFSGSIDSSSNSASLTISGLKTEDEADYYCQSYDSNNHVIFGGGTKLTVL
notes: also called mAb S.9.4.C7
[1]
  Kd: 1.31 nM
[2]
  Kd: ~0.205 nM
RBD Delta (L452R/T478K) [3]
  Kd: ~0.14 nM
[4]
  RU: 160 RU
[5]
  RU: 481 RU
RBD Delta (L452R/T478K) [6]
  RU: 1150 RU

B2: Monoclonal antibody S.10.1.C6 (antibody, V domains shown)
VH: QLQLQESGPGLVKPSETLSLTCTVSGGSISSSSYYWGWIRQPPGKGLEWIGSFYYSGGSYYNPSLKSRVTISVDTSKNQFSLKLSSVTAADTAVYYCARDEHGDYAVGYWGQGTLVTVSS
VL: QSVLTQPPSVSGAPGQRVTISCTGSSSNIGAGYDVHWYQQLPGTAPKLLIYGNNNRPSGVPDRFSGSKSGTSASLAITGLQAEDEADYYCQSYDSSLSALYVFGTGTKVTVL
notes: also called S.10.1.C6 mAb
[7]
  RU: 66 RU
[8]
  RU: 134 RU
RBD Delta (L452R/T478K) [9]
  RU: 343 RU
[10]
  Kd: ~0.804 nM
[11]
  Kd: ~0.235 nM
RBD Delta (L452R/T478K) [12]
  Kd: ~0.00812 nM

B3: Monoclonal antibody S.9.2.D7 (antibody, V domains shown)
VH: EVQLLESGGGLIQTGGSLRLSCAASGFTFSSYAMSWVRQAPGKGLEWVSVISDSGGSTYYADSVKGRLTISRDNSKNTLYVQMNSLRAEDTAVYYCAKGKGGIAAAGPAFLFDYWGQGTLVTVSS
VL: DIQMTQSPSLLSASAGDRVTISCRMSQGISSYLAWYQQKPGKAPELLISSASTLQSGVPSRFSGSGSGTDFTLTISYLQSEDFATYYCQQYYSFPTTFGGGTKVEIK
notes: also called mAb S.9.2.D7
[13]
  RU: 0 RU
[14]
  RU: 50 RU
RBD Delta (L452R/T478K) [15]
  RU: 0 RU
RBD Delta (L452R/T478K) [16]
  Kd: 0.00184 nM
[17]
  Kd: ~0.00629 nM
[18]
  Kd: ~0.000237 nM

B4: Monoclonal antibody S.11.1.D12 (antibody, V domains shown)
VH: EVQLLESGGGLVQPGGSLRLSCAASGFPFITYPMSWVRQAPGKGLEWVSDIGGIGGSTSYADSVKGRFTISRDNYQNTVYLQMHSLRAEDTAVYYCAKWKSRVDSSYKGGGWFDSWGPGTLVTVSS
VL: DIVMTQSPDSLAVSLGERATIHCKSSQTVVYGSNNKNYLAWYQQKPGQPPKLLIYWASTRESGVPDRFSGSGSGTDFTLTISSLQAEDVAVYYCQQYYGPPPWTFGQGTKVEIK
notes: also called mAb S.11.1.D12
[19]
  Kd: 3.73 nM
RBD Delta (L452R/T478K) [20]
  Kd: 0.636 nM
[21]
  Kd: ~11 nM
[22]
  RU: 145 RU
[23]
  RU: 44 RU
RBD Delta (L452R/T478K) [24]
  RU: 771 RU

B5: Monoclonal antibody S.11.1.C8 (antibody, V domains shown)
VH: QVQLVESGGGVVQPGRSLRLSCAASGFTFSTFSMHWVRQAPGKGLEWVAVILYDGTYKSYADSVKGRFTISRDNSGNTLFLQMNSLRAEDSAVYYCARDFGEMTTYFDFWGQGTLVTVSS
VL: DIQMTQPPSSLSASVGDRVTITCRASQSIGNNLNWYQQKPGKAPKLLIYVASSLQSGVPSRFSGSGSGTDFTLTISSLQPEDFATYFCQQSYSTPPWTFGQGTKVEIK
notes: also called mAb S.11.1.C8
[25]
  RU: 166 RU
[26]
  RU: 360 RU
RBD Delta (L452R/T478K) [27]
  RU: 799 RU
[28]
  Kd: 0.615 nM
[29]
  Kd: ~0.103 nM
RBD Delta (L452R/T478K) [30]
  Kd: ~0.0131 nM

B6: Monoclonal antibody S.9.4.F4 (antibody, V domains shown)
VH: QVQLVESGGGVVQPGRSLRLSCAASGFTFSHYGMHWVRQAPGKGLEWVAVILYDGSNEYYADSVKGRFTISRDNSKNTLYLQMNSLRAEDTAVYYCAKGAGTYCSGGNCYVAYFDYWGQGTLVTVSS
VL: AIRMTQSPSSLSASVGDRVTITCQASQDISNYLNWYQQKPGKAPKLLIYDASNLETGVPSRFSGSGSGTDFTVTISSLQPEDFATYYCQQYDNLPLTFGGGTKVEIK
notes: also called mAb S.9.4.F4
[31]
  Kd: 0.231 nM
[32]
  RU: 74 RU
[33]
  RU: 160 RU
RBD Delta (L452R/T478K) [34]
  RU: 373 RU
[35]
  Kd: ~0.0187 nM
RBD Delta (L452R/T478K) [36]
  Kd: ~0.00122 nM
